Source: patent US20050181479A1 (AstraZeneca / MedImmune, published 2005)

Target: T1, human EphA2-Fc (human, UniProt P29317 25-534, limits assumed, biotinylated in the capture ELISA (sites not given))
T1 construct: also called biotinylated human EphA2-Fc; human receptor tyrosine kinase EphA2; not shown: Fc portion; species, isotype and any linker are not described
Experiment: EphA2-specific capture ELISA: Fab from E. coli samples captured on anti-human Fab or anti-Fd, detected with biotinylated human EphA2-Fc
Method: Capture ELISA: An EphA2-specific capture ELISA was carried out as follows: briefly, individual wells of a 96-well Maxisorp Immunoplate were coated with 20 or 2000 ng of a goat anti-human Fab antibody (Cappel, Calif.) or of a sheep anti-human Fd (BioDesign, ME), blocked with 3% BSA/PBS for 2 h at 37° C. and then incubated with 75 μl of the various samples (supernatants, periplasmic extracts and whole cell extracts of G5 Fab, 12G3 Fab, irrelevant Fab and variants thereof) for 2 hours at room temperature. 300 ng/well of biotinylated human EphA2-Fc was then added for 1.5 hours at room temperature. This was followed by incubation with a neutravidin-horseradish peroxidase (HRP) conjugate for 40 min at room temperature. HRP activity was detected with tetra methyl benzidine (TMB) substrate and the reaction quenched with 0.2 M H₂SO₄. Plates were read at 450 nm.

T1 sequence (P29317 25-534 limits assumed): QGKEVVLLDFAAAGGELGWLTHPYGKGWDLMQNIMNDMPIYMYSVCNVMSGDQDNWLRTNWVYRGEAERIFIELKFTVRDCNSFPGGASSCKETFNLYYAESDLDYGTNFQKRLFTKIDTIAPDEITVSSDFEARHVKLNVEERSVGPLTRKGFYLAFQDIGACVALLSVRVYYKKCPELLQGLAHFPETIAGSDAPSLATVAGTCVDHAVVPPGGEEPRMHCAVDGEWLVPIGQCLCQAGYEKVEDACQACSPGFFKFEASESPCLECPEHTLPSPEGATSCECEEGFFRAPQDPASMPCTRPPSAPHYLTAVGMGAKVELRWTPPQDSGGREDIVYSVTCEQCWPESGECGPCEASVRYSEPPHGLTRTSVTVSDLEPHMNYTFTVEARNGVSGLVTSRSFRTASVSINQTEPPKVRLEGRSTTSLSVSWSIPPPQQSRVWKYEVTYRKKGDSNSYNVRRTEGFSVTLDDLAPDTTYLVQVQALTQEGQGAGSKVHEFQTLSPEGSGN

Binder	binding result
G5 Fab (Fab, V domains shown, Fab expressed in E. coli TG1 from an M13-based phage vector and tested as unpurified supernatant, periplasmic extract or whole cell extract; They are kept as one molecule, since the leader is not part of the mature Fab; also called mAb G5; anti-EphA2 Fab) VH: QMQLVQSGPEVKKPGTSVKVSCKASGFTFTDYSMNWVRQARGQRLEWIGFIRNKANDYTTEYSASVKGRVTITRDMSTSTAYMELSSLRSEDTAVYYCARYPRYHAMDSWGQGTSVTVSS VL: DIQMTQSPSSLSASVGDRVTITCRASQSISNNLHWYQQKPGKAPKLLIKYVFQSISGVPSRFSGSGSGTDFTFTISSLQPEDFATYYCQQSNSWPLTFGGGTKVEIK	binds
12G3 Fab (Fab, V domains shown, Fab expressed in E. coli TG1 from an M13-based phage vector and tested as unpurified supernatant, periplasmic extract or whole cell extract; They are kept as one molecule, since the leader is not part of the mature Fab; also called mAb12G3; anti-EphA2 Fab) VH: QMQLVQSGPEVKKPGTSVKVSCKASGFTFDDYSMNWVRQARGQRLEWIGFIRNKANDYTTEYSASVKGRVTITRDMSTSTAYMELSSLRSEDTAVYYCARYPRHHAMDSWGQGTSVTVSS VL: DIQMTQSPSSLSASVGDRVTITCRASQSISNNLHWYQQKPGKAPKLLIKYAFQSISGVPSRFSGSGSGTDFTFTISSLQPEDFATYYCQQANSWPLTFGGGTKVEIK	binds
